This note sets out measurements from article PMC3787751.

Substrate in the data set: [O-][Cl+]O
Nature of the data set: purified protein. The note with it: 25 °C, pH 7.0.

B1: NwCld (Nitrobacter winogradskyi Nb-255) (protein)
chain: MTFTVFTGGDSGAWSILSVAPVIGESLMAASHLAIAPSLSLGDTSATTPWQLRGVASHARYVERAEKIALTSVQAGLGRNEATRAALIPIRKSAAWWEMTQDERRAIFEDKSHHIAASLKYLPAIARQLYHCRDIGEPFDFLTWFEYAPEHATMFEDLVGVLRATEEWTYVEREVDIRLARAI
As a reminder, the Km is the concentration of substrate that gives half-maximal velocity. As a reminder, the kcat is the number of substrate molecules converted per active site and unit of time at saturation. With B1, the Km was found to be 90 ± 12 µM and the kcat is 190 ± 14 s⁻¹.

B2: NdCld (Nitrospira defluvii) (protein)
chain: ADREKLLTESGVYGTFATFQMDHDWWDLPGESRVISVAEVKGLVEQWSGKILVESYLLRGLSDHADLMFRVHARTLSDTQQFLSAFMGTRLGRHLTSGGLLHGVSKKPTYVAGFPESMKTELQVNGESGSRPYAIVIPIKKDAEWWALDQEARTALMQEHTQAALPYLKTVKRKLYHSTGLDDVDFITYFETERLEDFHNLVRALQQVKEFRHNRRFGHPTLLGTMSPLDEILEKFAQ
Take B2: the Km worked out at 58 ± 9 µM and the kcat came to 35 ± 5 s⁻¹.
